The chains are these.
T1: cynomolgus BLyS (full length, arginine to histidine at position 132) on CHO-K1 cells (cynomolgus, UniProt Q9Y275 1-285 (human entry))
T1 construct: also called cyno BLyS; CHO-K1 cynoBLyS
T1 chain: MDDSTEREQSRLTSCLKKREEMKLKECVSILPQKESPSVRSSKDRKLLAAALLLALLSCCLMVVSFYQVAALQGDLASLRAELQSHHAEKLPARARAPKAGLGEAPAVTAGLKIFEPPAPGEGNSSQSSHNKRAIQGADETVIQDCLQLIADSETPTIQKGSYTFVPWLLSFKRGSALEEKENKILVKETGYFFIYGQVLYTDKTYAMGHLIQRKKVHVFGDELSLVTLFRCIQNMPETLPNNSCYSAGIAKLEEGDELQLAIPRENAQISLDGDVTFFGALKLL

T2: human APRIL protein (human, UniProt O75888 105-250, limits assumed)
T2 construct: Bought protein; also called recombinant APRIL protein
T2 sequence (looked up): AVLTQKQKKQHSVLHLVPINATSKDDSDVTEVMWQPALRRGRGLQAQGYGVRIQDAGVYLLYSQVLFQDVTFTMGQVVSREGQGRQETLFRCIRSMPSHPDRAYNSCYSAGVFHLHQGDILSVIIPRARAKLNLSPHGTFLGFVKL

B1: 8E7D9C7F5 (antibody, V domains shown)
VH: QVQLQQSGVELARPGASVKLSCKASGYTFTSYGISWVKQRTGQALEWIGEIYPRSGNTYYNEKFKGKATLTADKSSSTAYMELRSLTSEDSAVYFCARSGPITTLVATDYGMDYWGQGTSVTVSS
VL: DIVLTQSPASLAVSLGQRATISCRASKSVSTSSYSYMHWYQQKPGQPPKLLIKFASNLESGVPARFSGSGSGTDFTLNIHPVEEEDAATYYCQHSREFPYTFGGGTKLEIK
notes: Mouse hybridoma monoclonal antibody purified on Protein G
B2: 111D10D6G3 (antibody, V domains shown)
VH: QVQLQQPGAELVKPGASVKMSCKASGYTFTRHWITWVKQRPGQGLEWIGDIFPGSGSINYNEKFKSEATLTVEKSSSTAYMQLSSLTSEDSAVYYCARGDVDVWGTGTTVTVSS
VL: DIQMTQSPSSLSASLGERVSLTCRASQEIRGYLSWLQQKPNGTIKRLIYAASTLDSGVPKRFSATRSGSDFSLTISSLESEDFADYYCLQYASYPFTFGSGTKLEIK
notes: as for B1
B3: 97A3C2H4 (antibody, V domains shown)
VH: EVKLVESGGGLVQPGGSLKLSCAASGFTFSTYTMSWVRQTPEKRLEWVAYISYGGGSTSYPDTVKGRFTISRDNAKNTLYLQMSSLKSEDTAIYYCTRHVTVVENSMDYWGQGTSVTVSS
VL: DILLTQSPDILSVSPGERVSFSCRASQSIGTSIHWYQQRTNGSPRLLIKYVSESFSGTPSRFSGSGSGTAFTLTINSVESEDIADYYCQQTHSWPWTFGGGTKLEIK
notes: Mouse hybridoma antibody purified on Protein G
B4: 111D10D6G3 (antibody, V domains shown)
VH: B2 VH
VL: B2 VL
notes: as for B3
B5: L9G7 (antibody, human IgG1, V domains shown)
VH: QIQLVQSGAEVKKPGASVKVSCKASGYTFTSYGISWVRQAPGQGLEWMGWISAYNGNTNYAQKLQGRVTMTTDTSTSTAYMELRSLRSDDTAVYYCARTYYDILTGYYYYGMDVWGQGTTVTVSS
VL: EIVLTQSPGTLSLSPGERATLSCRTSQSVDTYLAWYQQKPGQAPRLLIYDASNRATGIPARFSGSGSGTDFTLTISSLEPEDFAVYYCQQRSNWPLTFGGGTKVEIK
B6: L1D12 (antibody, human IgG1, V domains shown)
VH: QVQLVQSGGGLVQPGGSLRLSCAASGFTVSSNYMSWVRQAPGKGLEWVSVIYSGGSTYYADSVKGRFTISRDNSKNTLYLQMNSLRAEDTAVYYCARGFHDILTGYGMDVWGQGTTVTVSS
VL: SSELTQDPAVSVALGQTVRITCQGDSLRNYYAGWYQQKPGQAPVLVIYGKNNRPSGIPDRFSGSSSGNTASLTITGTQAEDEADYYCSSRDNSGTHLVEFGGGTKLTVL
notes: also called LID12

The target in one experiment is T3, human BLyS (full length, arginine to histidine at position 132) on CHO-K1 cells (human, UniProt Q9Y275 1-285).
T3 construct: also called hBLyS; CHO-K1 hBLyS
T3 sequence (Q9Y275 whole entry R130H): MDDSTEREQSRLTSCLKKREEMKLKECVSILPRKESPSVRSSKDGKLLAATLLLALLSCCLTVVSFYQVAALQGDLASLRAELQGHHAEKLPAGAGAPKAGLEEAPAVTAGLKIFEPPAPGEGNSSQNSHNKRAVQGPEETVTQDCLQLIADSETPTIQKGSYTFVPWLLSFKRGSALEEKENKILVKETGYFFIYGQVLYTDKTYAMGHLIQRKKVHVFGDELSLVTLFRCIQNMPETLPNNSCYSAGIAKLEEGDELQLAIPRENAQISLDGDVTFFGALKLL
Nature of the experiment: flow cytometry, CHO-K1 hBLyS cells, antibody 0 nM. A general note: In flow cytometry, cells or beads pass a laser one at a time.
On to B1, for which the MFI came to 152 MFI.
The same measure, in the same setting: the figure for B2 is 32.4 MFI.

The target of a further experiment is T1, cynomolgus BLyS (full length, arginine …). Description: flow cytometry, CHO-K1 cynoBLyS cells, antibody 0.00427 nM.
B1 gave an MFI of 74.4 MFI.
Regarding B2, the MFI worked out at 38.8 MFI.

For another experiment, the target named is T2, human APRIL protein. Nature of the experiment: ELISA, coated APRIL; antibody 66.7 nM. Summed up:
(§1)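 OD450 values reflect BLyS antibody binding to immobilised human APRIL (1.0 μg/mL coat), detected via HRP-conjugated secondary and TMB with acid stop.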
hIgG Control (antibody) returned an OD450 nm of 0.477.
Same read-out and setting: the figure for mIgG Control (antibody) is 0.102.
Consider B3, for which the OD450 nm came to 0.173.
Same read-out and setting: the value for B4 was 0.0681.
As to B5, the OD450 nm was 0.276.
B6 had an OD450 nm of 0.133.

In another experiment the target is T1, cynomolgus BLyS (full length, arginine …). Nature of the experiment: flow cytometry, CHO-K1 cynoBLyS cells, antibody 0.0213 nM.
As for B1, the MFI was determined as 165 MFI.
B2 yielded an MFI of 108 MFI.

A further experiment addresses T2, human APRIL protein. Description: ELISA, coated APRIL; antibody 2.67 nM. Summed up:
as §1
For orientation: In an ELISA, binding on a coated surface is turned into a signal by an enzyme label.
For hIgG Control (antibody), the OD450 nm was 0.128.
mIgG Control (antibody) yielded an OD450 nm of 0.0558.
Still for that read-out and setting: the value for B3 was 0.0617; that for B4 was 0.0583.
Same read-out and setting: the value for B5 was 0.0751.
On to B6, for which the OD450 nm was 0.102.

The next experiment has as its target T1, cynomolgus BLyS (full length, arginine …). Description: flow cytometry, CHO-K1 cynoBLyS cells, antibody 13.3 nM.
For the molecule B1, the MFI came to 1170 MFI.
Same read-out and setting: the figure for B2 is 524 MFI.

For the next experiment, the target named is T3, human BLyS (full length, arginine to …). Description: flow cytometry, CHO-K1 hBLyS cells, antibody 13.3 nM.
Turning to B1, the MFI came to 570 MFI.
Still for that read-out and setting: the value for B2 was 276 MFI.

The next experiment concerns the target T1, cynomolgus BLyS (full length, arginine …). Description: flow cytometry, CHO-K1 cynoBLyS cells, antibody 66.7 nM.
The molecule B1 returned an MFI of 1170 MFI.
Same read-out and setting: the figure for B2 is 539 MFI.

Another experiment has as its target T3, human BLyS (full length, arginine to …). Nature of the experiment: flow cytometry, CHO-K1 hBLyS cells, antibody 0.00427 nM.
B1: the MFI was 67.4 MFI.
Same read-out and setting: the value for B2 was 41.2 MFI.

The next experiment deals with mouse BLyS protein (mouse, UniProt Q9WU72 69-309). Description: cell-based or functional assay.
Sequence of mouse BLyS protein (Q9WU72 69-309): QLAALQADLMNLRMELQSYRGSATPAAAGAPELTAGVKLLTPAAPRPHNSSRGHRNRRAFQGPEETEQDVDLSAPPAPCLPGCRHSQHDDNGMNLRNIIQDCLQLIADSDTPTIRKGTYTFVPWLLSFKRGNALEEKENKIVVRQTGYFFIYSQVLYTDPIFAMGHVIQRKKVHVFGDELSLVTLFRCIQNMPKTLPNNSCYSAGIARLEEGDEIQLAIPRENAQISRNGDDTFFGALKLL
The molecule hIgG Control (antibody) came in with a mouse B lymphocyte proliferation (OD450 nm), antibody 0 nM of 2220 OD450 nm; a mouse B lymphocyte proliferation (OD450 nm), antibody 0.000256 nM of 2220; a mouse B lymphocyte proliferation (OD450 nm), antibody 0.00128 nM of 2240 OD450 nm; a mouse B lymphocyte proliferation (OD450 nm), antibody 0.0064 nM of 2460 OD450 nm. The same molecule came in with a mouse B lymphocyte proliferation (OD450 nm), antibody 0.032 nM of 2500 OD450 nm; a mouse B lymphocyte proliferation (OD450 nm), antibody 0.16 nM of 2440 OD450 nm; a mouse B lymphocyte proliferation (OD450 nm), antibody 0.8 nM of 2510 OD450 nm; a mouse B lymphocyte proliferation (OD450 nm), antibody 4 nM of 2580 OD450 nm. For the same molecule, the mouse B lymphocyte proliferation (OD450 nm), antibody 20 nM worked out at 2600 OD450 nm and the mouse B lymphocyte proliferation (OD450 nm), antibody 100 nM came to 2670 OD450 nm.
As for mIgG Control (antibody), the mouse B lymphocyte proliferation (OD450 nm), antibody 0 nM was 2190 OD450 nm; the mouse B lymphocyte proliferation (OD450 nm), antibody 0.000256 nM amounted to 2110; the mouse B lymphocyte proliferation (OD450 nm), antibody 0.00128 nM came to 2270 OD450 nm; the mouse B lymphocyte proliferation (OD450 nm), antibody 0.0064 nM is 2420 OD450 nm. Also, the mouse B lymphocyte proliferation (OD450 nm), antibody 0.032 nM is 2320 OD450 nm; the mouse B lymphocyte proliferation (OD450 nm), antibody 0.16 nM worked out at 2330 OD450 nm; the mouse B lymphocyte proliferation (OD450 nm), antibody 0.8 nM was determined as 2520 OD450 nm; the mouse B lymphocyte proliferation (OD450 nm), antibody 4 nM came out at 2440 OD450 nm. This molecule also showed a mouse B lymphocyte proliferation (OD450 nm), antibody 20 nM of 2360 OD450 nm and a mouse B lymphocyte proliferation (OD450 nm), antibody 100 nM of 2350 OD450 nm.
Take B1: the “mouse B lymphocyte proliferation (OD450 nm), antibody 0 nM” value stood at 2100 OD450 nm; the “mouse B lymphocyte proliferation (OD450 nm), antibody 0.000256 nM” value was 2220 OD450 nm; the “mouse B lymphocyte proliferation (OD450 nm), antibody 0.00128 nM” value is 2240 OD450 nm; the “mouse B lymphocyte proliferation (OD450 nm), antibody 0.0064 nM” value is 2250 OD450 nm. Further, the “mouse B lymphocyte proliferation (OD450 nm), antibody 0.032 nM” value was 2320 OD450 nm; the “mouse B lymphocyte proliferation (OD450 nm), antibody 0.16 nM” value was 2350 OD450 nm; the “mouse B lymphocyte proliferation (OD450 nm), antibody 0.8 nM” value stood at 2300 OD450 nm; the “mouse B lymphocyte proliferation (OD450 nm), antibody 4 nM” value worked out at 2440 OD450 nm. Also, the “mouse B lymphocyte proliferation (OD450 nm), antibody 20 nM” value turned out to be 2350 OD450 nm and the “mouse B lymphocyte proliferation (OD450 nm), antibody 100 nM” value amounted to 2360 OD450 nm.
For B2, the “mouse B lymphocyte proliferation (OD450 nm), antibody 0 nM” value was found to be 2120 OD450 nm; the “mouse B lymphocyte proliferation (OD450 nm), antibody 0.000256 nM” value was found to be 2300 OD450 nm; the “mouse B lymphocyte proliferation (OD450 nm), antibody 0.00128 nM” value was found to be 2150 OD450 nm; the “mouse B lymphocyte proliferation (OD450 nm), antibody 0.0064 nM” value is 2130 OD450 nm. Besides, the “mouse B lymphocyte proliferation (OD450 nm), antibody 0.032 nM” value is 2320 OD450 nm; the “mouse B lymphocyte proliferation (OD450 nm), antibody 0.16 nM” value turned out to be 2290 OD450 nm; the “mouse B lymphocyte proliferation (OD450 nm), antibody 0.8 nM” value is 2520 OD450 nm; the “mouse B lymphocyte proliferation (OD450 nm), antibody 4 nM” value was 2710 OD450 nm. Besides, the “mouse B lymphocyte proliferation (OD450 nm), antibody 20 nM” value was 2540 OD450 nm and the “mouse B lymphocyte proliferation (OD450 nm), antibody 100 nM” value is 2360 OD450 nm.

The next experiment has as its target T1, cynomolgus BLyS (full length, arginine …). Description: flow cytometry, CHO-K1 cynoBLyS cells, antibody 0.534 nM.
B1 showed an MFI of 1050 MFI.
Still for that read-out and setting: the value for B2 was 478 MFI.

A further experiment has as its target T2, human APRIL protein. Description: ELISA, coated APRIL; antibody 0.00427 nM. Summed up:
as §1
In turn, hIgG Control (antibody) yielded an OD450 nm of 0.0693.
Same read-out and setting: the figure for mIgG Control (antibody) is 0.0587; for B3 it is 0.0625; for B4 it is 0.0538.
The same measure, in the same setting: the value for B5 was 0.161; that for B6 was 0.121.

The values are drawn from patent US20210347873A1 (SHANGHAI PHARMAEXPLORER, published 2021).
